Assay results as given in PMC3281904, “Novel Covalently Linked Insulin Dimer Engineered to Investigate the Function of Insulin Dimerization” (PLoS ONE, 2012).
Marks after values point to notes of the source that are not given here.

Tests used:
[1] = target: B25C insulin precursor (human) (UniProt P01308); assay: LC/MS; LC/MS of the fermentations; mass of a disulfide-linked dimer
[2] = hexameric insulin, previously determined, ref 65 (HI), 66 (bovine), 67 (porcine), cited from earlier work
Description: Table 2 The experimental parameters determined from the fit in Figure 2 and results previously determined for hexameric insulin of human and porcine origin. | column: Standard Sedimentation Coefficient s20,w, [S]; Standard Diffusion Coefficient D20,w, (×10−7 [cm^2/s]); Molar mass [kg/mole]; Rh [nm]

Row | stoichiometry N [1] | Substance | Standard Sedimentation Coefficient s20,w ([2]; HI probably affected by non-ideality) [S] | Molar mass [2] [kg/mol] | Rh [2] [nm] | Standard Diffusion Coefficient D20,w [2]
1 | 2 | B25C insulin precursor (from UniProt P01308 1-29) | – | – | – | –
2 | – | Bovine insulin: hexameric bovine insulin, literature values | 3.12 | 34.4 | 2.63 | 8.35 ^* ×10−7 cm^2/s
